Test results published in patent publication US20180273587A1 (AILERON THERAPEUTICS, published 2018).
Positions of bridges follow the written chain, without caps; N, C: chain ends. Non-standard residues stand in square brackets, D forms with d. R8 = C=CCCCCCC[C@@](C)(N)C(=O)O; Cha = N[C@@H](CC1CCCCC1)C(=O)O; S5 = C=CCCC[C@](C)(N)C(=O)O

Legend:
Test in all cases: Ki table, method not stated
MCL-1 = target: T1, MCL-1 (UniProt Q07820 172-327, limits assumed)
T1 construct: also called Myeloid cell leukemia 1

BCL-XL = BCL-XL (UniProt Q07817 1-209)
BCL-2 = BCL-2 (UniProt P10415 1-217, limits assumed)
Chain of BCL-2 (P10415 1-217 limits assumed): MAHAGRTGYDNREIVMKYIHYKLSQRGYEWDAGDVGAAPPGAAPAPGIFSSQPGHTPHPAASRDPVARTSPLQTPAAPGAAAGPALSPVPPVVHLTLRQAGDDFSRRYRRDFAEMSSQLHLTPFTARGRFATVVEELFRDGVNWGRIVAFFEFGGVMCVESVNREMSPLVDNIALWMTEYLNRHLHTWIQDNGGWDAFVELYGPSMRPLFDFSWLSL

T1 sequence (Q07820 172-327 limits assumed): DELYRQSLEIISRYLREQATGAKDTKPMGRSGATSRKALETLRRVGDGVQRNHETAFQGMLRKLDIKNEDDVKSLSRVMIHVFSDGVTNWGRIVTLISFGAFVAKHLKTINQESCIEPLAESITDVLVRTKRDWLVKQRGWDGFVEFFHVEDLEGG
Chain of BCL-XL (Q07817 1-209): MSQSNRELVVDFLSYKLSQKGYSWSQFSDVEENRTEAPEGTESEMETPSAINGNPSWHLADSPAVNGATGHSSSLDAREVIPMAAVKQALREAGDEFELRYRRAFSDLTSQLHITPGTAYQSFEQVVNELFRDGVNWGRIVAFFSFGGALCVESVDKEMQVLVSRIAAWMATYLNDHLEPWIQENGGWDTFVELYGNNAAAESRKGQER

Row | Binder | Ki (MCL-1) [nM] | Ki (BCL-XL) [nM] | Ki (BCL-2) [nM]
1 | Ac-IWIAQALR[R8]AGDQFN[S5]YYA-NH2 (staple 9-16; SMILES CC[C@H](C)[C@H](NC(C)=O)C(=O)N[C@@H](Cc1c[nH]c2ccccc12)C(=O)N[C@H](C(=O)N[C@@H](C)C(=O)N[C@@H](CCC(N)=O)C(=O)N[C@@H](C)C(=O)N[C@@H](CC(C)C)C(=O)N[C@@H](CCCNC(=N)N)C(=O)N[C@]1(C)CCCCCCC=CCCC[C@@](C)(C(=O)N[C@@H](Cc2ccc(O)cc2)C(=O)N[C@@H](Cc2ccc(O)cc2)C(=O)N[C@@H](C)C(N)=O)NC(=O)[C@H](CC(N)=O)NC(=O)[C@H](Cc2ccccc2)NC(=O)[C@H](CCC(N)=O)NC(=O)[C@H](CC(=O)O)NC(=O)CNC(=O)[C@H](C)NC1=O)[C@@H](C)CC) [SEQ ID NO: 1668] | 122 | 1.9 | 4.8
2 | Ac-IW[Cha]AQALR[R8]IGDAFN[S5]YYA-NH2 (staple 9-16; SMILES CC[C@H](C)[C@H](NC(C)=O)C(=O)N[C@@H](Cc1c[nH]c2ccccc12)C(=O)N[C@@H](CC1CCCCC1)C(=O)N[C@@H](C)C(=O)N[C@@H](CCC(N)=O)C(=O)N[C@@H](C)C(=O)N[C@@H](CC(C)C)C(=O)N[C@@H](CCCNC(=N)N)C(=O)N[C@]1(C)CCCCCCC=CCCC[C@@](C)(C(=O)N[C@@H](Cc2ccc(O)cc2)C(=O)N[C@@H](Cc2ccc(O)cc2)C(=O)N[C@@H](C)C(N)=O)NC(=O)[C@H](CC(N)=O)NC(=O)[C@H](Cc2ccccc2)NC(=O)[C@H](C)NC(=O)[C@H](CC(=O)O)NC(=O)CNC(=O)[C@H]([C@@H](C)CC)NC1=O, also called Ac-IWChaAQALR$r8IGDAFN$YYA-NH2) [SEQ ID NO: 1677] | 43.8 | 14.4 | 105
3 | Ac-IWIAQALR[R8]IGNAFN[S5]YYA-NH2 (staple 9-16; SMILES CC[C@H](C)[C@H](NC(C)=O)C(=O)N[C@@H](Cc1c[nH]c2ccccc12)C(=O)N[C@H](C(=O)N[C@@H](C)C(=O)N[C@@H](CCC(N)=O)C(=O)N[C@@H](C)C(=O)N[C@@H](CC(C)C)C(=O)N[C@@H](CCCNC(=N)N)C(=O)N[C@]1(C)CCCCCCC=CCCC[C@@](C)(C(=O)N[C@@H](Cc2ccc(O)cc2)C(=O)N[C@@H](Cc2ccc(O)cc2)C(=O)N[C@@H](C)C(N)=O)NC(=O)[C@H](CC(N)=O)NC(=O)[C@H](Cc2ccccc2)NC(=O)[C@H](C)NC(=O)[C@H](CC(N)=O)NC(=O)CNC(=O)[C@H]([C@@H](C)CC)NC1=O)[C@@H](C)CC) [SEQ ID NO: 1674] | 195 | 416 | 405
4 | Ac-IWIAQALR[R8]FGDQFN[S5]YYA-NH2 (staple 9-16; SMILES CC[C@H](C)[C@H](NC(C)=O)C(=O)N[C@@H](Cc1c[nH]c2ccccc12)C(=O)N[C@H](C(=O)N[C@@H](C)C(=O)N[C@@H](CCC(N)=O)C(=O)N[C@@H](C)C(=O)N[C@@H](CC(C)C)C(=O)N[C@@H](CCCNC(=N)N)C(=O)N[C@]1(C)CCCCCCC=CCCC[C@@](C)(C(=O)N[C@@H](Cc2ccc(O)cc2)C(=O)N[C@@H](Cc2ccc(O)cc2)C(=O)N[C@@H](C)C(N)=O)NC(=O)[C@H](CC(N)=O)NC(=O)[C@H](Cc2ccccc2)NC(=O)[C@H](CCC(N)=O)NC(=O)[C@H](CC(=O)O)NC(=O)CNC(=O)[C@H](Cc2ccccc2)NC1=O)[C@@H](C)CC) [SEQ ID NO: 1670] | 74.1 | 25.6 | 66.1

These reach a lower Ki (MCL-1). Values come first.

Row | Ki (MCL-1) [nM] | Ki (BCL-XL) [nM] | Ki (BCL-2) [nM] | Binder
5 | 22 | 28 | 179 | Ac-IWFAQALR[R8]IGDAFN[S5]YYA-NH2 (staple 9-16; SMILES CC[C@H](C)[C@H](NC(C)=O)C(=O)N[C@@H](Cc1c[nH]c2ccccc12)C(=O)N[C@@H](Cc1ccccc1)C(=O)N[C@@H](C)C(=O)N[C@@H](CCC(N)=O)C(=O)N[C@@H](C)C(=O)N[C@@H](CC(C)C)C(=O)N[C@@H](CCCNC(=N)N)C(=O)N[C@]1(C)CCCCCCC=CCCC[C@@](C)(C(=O)N[C@@H](Cc2ccc(O)cc2)C(=O)N[C@@H](Cc2ccc(O)cc2)C(=O)N[C@@H](C)C(N)=O)NC(=O)[C@H](CC(N)=O)NC(=O)[C@H](Cc2ccccc2)NC(=O)[C@H](C)NC(=O)[C@H](CC(=O)O)NC(=O)CNC(=O)[C@H]([C@@H](C)CC)NC1=O) [SEQ ID NO: 1671]
6 | 22.8 | 53.5 | 84.9 | Ac-IWIAQALR[R8]IGDQFA[S5]YYA-NH2 (staple 9-16; SMILES CC[C@H](C)[C@H](NC(C)=O)C(=O)N[C@@H](Cc1c[nH]c2ccccc12)C(=O)N[C@H](C(=O)N[C@@H](C)C(=O)N[C@@H](CCC(N)=O)C(=O)N[C@@H](C)C(=O)N[C@@H](CC(C)C)C(=O)N[C@@H](CCCNC(=N)N)C(=O)N[C@]1(C)CCCCCCC=CCCC[C@@](C)(C(=O)N[C@@H](Cc2ccc(O)cc2)C(=O)N[C@@H](Cc2ccc(O)cc2)C(=O)N[C@@H](C)C(N)=O)NC(=O)[C@H](C)NC(=O)[C@H](Cc2ccccc2)NC(=O)[C@H](CCC(N)=O)NC(=O)[C@H](CC(=O)O)NC(=O)CNC(=O)[C@H]([C@@H](C)CC)NC1=O)[C@@H](C)CC) [SEQ ID NO: 1676]
7 | 29.3 | 25.9 | 205 | Ac-IWFAQALR[R8]IGDQFN[S5]YYA-NH2 (staple 9-16; SMILES CC[C@H](C)[C@H](NC(C)=O)C(=O)N[C@@H](Cc1c[nH]c2ccccc12)C(=O)N[C@@H](Cc1ccccc1)C(=O)N[C@@H](C)C(=O)N[C@@H](CCC(N)=O)C(=O)N[C@@H](C)C(=O)N[C@@H](CC(C)C)C(=O)N[C@@H](CCCNC(=N)N)C(=O)N[C@]1(C)CCCCCCC=CCCC[C@@](C)(C(=O)N[C@@H](Cc2ccc(O)cc2)C(=O)N[C@@H](Cc2ccc(O)cc2)C(=O)N[C@@H](C)C(N)=O)NC(=O)[C@H](CC(N)=O)NC(=O)[C@H](Cc2ccccc2)NC(=O)[C@H](CCC(N)=O)NC(=O)[C@H](CC(=O)O)NC(=O)CNC(=O)[C@H]([C@@H](C)CC)NC1=O) [SEQ ID NO: 1672]
8 | 27.8 | 15.8 | 68.5 | Ac-IWIAQALR[R8]FGDAFN[S5]YYA-NH2 (staple 9-16; SMILES CC[C@H](C)[C@H](NC(C)=O)C(=O)N[C@@H](Cc1c[nH]c2ccccc12)C(=O)N[C@H](C(=O)N[C@@H](C)C(=O)N[C@@H](CCC(N)=O)C(=O)N[C@@H](C)C(=O)N[C@@H](CC(C)C)C(=O)N[C@@H](CCCNC(=N)N)C(=O)N[C@]1(C)CCCCCCC=CCCC[C@@](C)(C(=O)N[C@@H](Cc2ccc(O)cc2)C(=O)N[C@@H](Cc2ccc(O)cc2)C(=O)N[C@@H](C)C(N)=O)NC(=O)[C@H](CC(N)=O)NC(=O)[C@H](Cc2ccccc2)NC(=O)[C@H](C)NC(=O)[C@H](CC(=O)O)NC(=O)CNC(=O)[C@H](Cc2ccccc2)NC1=O)[C@@H](C)CC) [SEQ ID NO: 1669]
